Experimental findings from patent US20160194407A1 (AstraZeneca / MedImmune, published 2016) are described below.

One may read the Kd as a measure of binding affinity in units of concentration. A higher Kd goes with weaker binding.

The target of experiment [1] is T1, cynomolgus CD73 extracellular domain (ECD) (cynomolgus).
T1 construct: extracellular domain; also called Cynomolgus CD73 ECD; cyno CD73 (SPR Proteon)
Nature of the experiment: SPR (Proteon), IgG1-TM.

Experiment [2] concerns the target T2, recombinant mature human CD73 (amino acid positions 1-526) with C-terminal 6x-histidine tag (human, UniProt P21589 27-553).
T2 sequence: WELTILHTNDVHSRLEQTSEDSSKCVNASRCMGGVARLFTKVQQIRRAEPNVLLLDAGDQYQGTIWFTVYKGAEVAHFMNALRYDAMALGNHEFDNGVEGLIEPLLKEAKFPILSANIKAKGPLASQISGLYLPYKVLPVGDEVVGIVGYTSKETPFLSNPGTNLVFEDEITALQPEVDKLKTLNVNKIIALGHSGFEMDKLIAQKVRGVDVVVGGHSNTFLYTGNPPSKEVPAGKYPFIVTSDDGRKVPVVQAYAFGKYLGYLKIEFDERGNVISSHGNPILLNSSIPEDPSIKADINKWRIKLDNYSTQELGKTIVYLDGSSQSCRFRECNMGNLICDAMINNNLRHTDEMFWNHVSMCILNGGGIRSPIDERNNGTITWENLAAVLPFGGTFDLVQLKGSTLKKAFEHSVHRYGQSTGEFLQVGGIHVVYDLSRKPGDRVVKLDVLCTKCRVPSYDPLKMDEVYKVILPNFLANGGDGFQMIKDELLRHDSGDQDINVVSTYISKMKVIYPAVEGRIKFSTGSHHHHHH
The experiment in a line: cell-based or functional assay.

The target of experiment [3] is T3, CD73 construct with chicken N- and C-terminal domain sequence and knocked-in human V144 and N185.
T3 construct: K180 is conserved between chicken and human; also called chicken CD73 replaced with V144 and N185; knock-in
T3 chain: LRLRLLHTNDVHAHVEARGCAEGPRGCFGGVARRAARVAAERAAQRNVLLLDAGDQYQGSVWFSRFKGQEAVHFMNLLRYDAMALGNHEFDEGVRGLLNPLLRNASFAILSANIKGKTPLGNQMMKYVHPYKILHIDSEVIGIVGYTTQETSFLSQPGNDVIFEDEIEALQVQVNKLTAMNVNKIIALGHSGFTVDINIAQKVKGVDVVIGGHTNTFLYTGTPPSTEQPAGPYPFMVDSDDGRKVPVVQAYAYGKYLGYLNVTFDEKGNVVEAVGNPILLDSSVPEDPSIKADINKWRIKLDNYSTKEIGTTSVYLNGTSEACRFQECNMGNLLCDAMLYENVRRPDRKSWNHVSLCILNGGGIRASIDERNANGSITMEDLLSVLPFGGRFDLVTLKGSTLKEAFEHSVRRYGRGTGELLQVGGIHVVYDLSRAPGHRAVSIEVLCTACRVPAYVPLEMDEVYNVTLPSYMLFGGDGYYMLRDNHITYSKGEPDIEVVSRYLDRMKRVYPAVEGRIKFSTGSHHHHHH
The experiment in a line: SPR ProteOn, His-tagged CD73 variant on HTG chip.

B1: MEDI9447 (antibody, V domains shown)
VH: EVQLLESGGGLVQPGGSLRLSCAASGFTFSSYAYSWVRQAPGKGLEWVSAISGSGGRTYYADSVKGRFTISRDNSKNTLYLQMNSLRAEDTAVYYCARLGYGRVDEWGRGTLVTVSS
VL: QSVLTQPPSASGTPGQRVTISCSGSLSNIGRNPVNWYQQLPGTAPKLLIYLDNLRLSGVPDRFSGSKSGTSASLAISGLQSEDEADYYCATWDDSHPGWTFGGGTKLTVL
notes: also called clone 10.3 antibody; 73combo3
For B1, the Kd in experiment [1] worked out at 7 pM; in experiment [3], 79 pM. The “inhibition of sCD73 hydrolysis of AMP (CellTiterGlo), dose response” value in experiment [2] was ~1 IgG per sCD73 dimer (molar ratio).
